This is an account of results in patent publication US20140105915A1 (GlaxoSmithKline, published 2014).

Assay [1] deals with T1, recombinant human BCMA Fc 4-53 (human).
T1 construct: also called CD33-hBCMA ECD (4-53) TEV-Fc; recombinant BCMA coated on an ELISA plate
In words: competition ELISA, coated recombinant human BCMA Fc 4-53, blocked ligand recombinant human BAFF (6 ng/mL), biotinylated anti-BAFF detection [A]. Here is the method:
96 well flat bottomed plates were coated overnight with 1 μg/mL solution of recombinant human BCMA Fc 4-53 in PBS. Following a wash step using 0.05% TWEEN20, plates were blocked with 2% Bovine Serum Albumin solution in PBS for 1 hour at room temperature. […] 40 μL of 2% BSA was added to the relevant control wells. […] Equivalent volume of 2% BSA was added to the relevant control wells. Plates were allowed to incubate for 2 hours at room temperature, after which they were washed as before. […] Following a wash step, 50 μL of a 1:4000 dilution of Streptavidin-HRP (Amersham RPN4401) was added to each well and incubated for 30 minutes at room temperature. The wash process was repeated again followed by the addition of 100 μL of Tetramethylbenzidine substrate solution (T8665, Sigma) into each well. Plates were incubated for 20-25 minutes at room temperature, wrapped in foil. The reaction was stopped with the addition of 100 μL of 1M H₂SO₄. Optical density was determined at 450 nm using Spectromax reader.
On the technique in general: In an ELISA, binding on a coated surface is turned into a signal by an enzyme label.

The target in assay [2] is T2, human BCMA on cells (human, UniProt Q02223 1-184).
T2 sequence (looked up): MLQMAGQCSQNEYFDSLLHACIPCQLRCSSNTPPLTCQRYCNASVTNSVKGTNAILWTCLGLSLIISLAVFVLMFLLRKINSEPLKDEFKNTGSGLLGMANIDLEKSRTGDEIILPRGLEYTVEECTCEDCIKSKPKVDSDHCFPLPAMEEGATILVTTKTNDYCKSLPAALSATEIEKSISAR
Description: cell-based or functional assay.

The target of assay [3] is T3, recombinant human BCMA (in house) (human, UniProt Q02223 4-53, limits assumed).
T3 construct: Analyte in the ProteOn runs; also called Human in house BCMA; In house human BCMA
T3 chain (looked up): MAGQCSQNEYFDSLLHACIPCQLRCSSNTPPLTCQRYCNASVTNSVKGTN
Description: SPR ProteOn XPR36, mAb captured on Protein A, 25C, run 2. Here is the method:
The initial screen of CA8 chimeric and humanised variants was carried out on the ProteOn XPR36 (Biorad). The method was as follows; Protein A was immobilised on a GLC chip (Biorad, Cat No: 176-5011) by primary amine coupling, CA8 variants were then captured on this surface and recombinant human BCMA (in house or commercial US Biological, B0410) materials (run 2 only)) passed over at 256, 64, 16, 4, 1 nM with a OnM injection (i.e. buffer alone) used to double reference the binding curves, the buffer used is the HBS-EP buffer. 50 mM NaOH was used to regenerate the capture surface. The data was fitted to the 1:1 model using the analysis software inherent to the ProteOn XPR36. […] Both runs were carried out at 25° C.

Assay [4] addresses T3, recombinant human BCMA (in house). Description: SPR ProteOn XPR36, mAb captured on Protein A, 25C, run 1.
In assay [5] the target is T4, cyno BCMA on HEK293 cells (cyno, UniProt A0A2K5UD97 1-183).
T4 construct: whole, on cells; also called cyno BCMA HEK293
Description: FMAT, HEK293 cells transfected with cyno BCMA, anti-human IgG FMAT Blue detection. Here is the method:
(§1) Cryopreserved transfected human, cyno BCMA and mock transfected HEK293 cells were recovered from LN2 storage. […] The assay plates were left for a minimum of 90 minutes before the result was read on the AB18200 (FMAT) plate reader.

Assay [6] deals with T2, human BCMA on cells. In words: FMAT, HEK293 cells transfected with human BCMA, anti-human IgG FMAT Blue detection. Here is the method:
as §1

T4 sequence (A0A2K5UD97 entry or part of it): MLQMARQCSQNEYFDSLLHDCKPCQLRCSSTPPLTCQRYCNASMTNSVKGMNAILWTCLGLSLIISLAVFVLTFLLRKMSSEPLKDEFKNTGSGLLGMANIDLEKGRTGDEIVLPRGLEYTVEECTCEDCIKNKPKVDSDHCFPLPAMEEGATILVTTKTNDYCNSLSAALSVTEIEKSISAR

B1: J6M0 potelligent (antibody, human IgG1, kappa, V domains shown)
VH: QVQLVQSGAEVKKPGSSVKVSCKASGGTFSNYWMHWVRQAPGQGLEWMGATYRGHSDTYYNQKFKGRVTITADKSTSTAYMELSSLRSEDTAVYYCARGAIYDGYDVLDNWGQGTLVTVSS
VL: DIQMTQSPSSLSASVGDRVTITCSASQDISNYLNWYQQKPGKAPKLLIYYTSNLHSGVPSRFSGSGSGTDFTLTISSLQPEDFATYYCQQYRKLPWTFGQGTKLEIKR
modifications: afucosylated (Potelligent) Fc glycan
notes: Same chains as J6M0, made in FUT8-deficient cells (afucosylated); human IgG1/kappa; also called J6M0 potelligent version; afucosylated (Potelligent) J6M0
With B1, in assay [1], the “IC50 (read off the curve)” value is approximately 0.8 µg/mL. In addition, in assay [2], the “IC50 for inhibition of APRIL signalling (phosphorylated NFkappaB in washed H-929 cells, MSD assay)” value amounted to 2.43 µg/mL and the “IC50 for inhibition of BAFF signalling (phosphorylated NFkappaB in washed H-929 cells, MSD assay)” value was 0.91 µg/mL.

B2: CA8 humanised J7M1 (antibody, human IgG1, kappa, V domains shown)
VH: QVQLVQSGAEVKKPGSSVKVSCKASGYTFTNYWMHWVRQAPGQGLEWMGATYRGHSDTYYNQKFKGRVTITADKSTSTAYMELSSLRSEDTAVYYCARGAIYDGYDVLDNWGQGTLVTVSS
VL: DIQMTQSPSSLSASVGDRVTITCSASQDISNYLNWYQQKPGKAPKLLIYYTSNLHSGVPSRFSGSGSGTDYTLTISSLQPEDFATYYCQQYRKLPWTFGQGTKLEIKR
notes: humanised, human IgG1/kappa
As to B2, in assay [3], the binding result is “binds”.

B3: CA8 humanised J8M1 (antibody, human IgG1, kappa, V domains shown)
VH: QVQLVQSGAEVKKPGSSVKVSCKASGYTFTNYWMHWVRQAPGQGLEWMGATYRGHSDTYYNQKFKGRVTITADKSTSTAYMELSSLRSEDTAVYYCTRGAIYDGYDVLDNWGQGTLVTVSS
VL: DIQMTQSPSSLSASVGDRVTITCSASQDISNYLNWYQQKPGKAPKLLIYYTSNLHSGVPSRFSGSGSGTDYTLTISSLQPEDFATYYCQQYRKLPWTFGQGTKLEIKR
notes: humanised, human IgG1/kappa
Turning to B3, the binding result in assay [3] is “binds”.

B4: CA8 humanised J8M2 (antibody, human IgG1, kappa, V domains shown)
VH: QVQLVQSGAEVKKPGSSVKVSCKASGYTFTNYWMHWVRQAPGQGLEWMGATYRGHSDTYYNQKFKGRVTITADKSTSTAYMELSSLRSEDTAVYYCTRGAIYDGYDVLDNWGQGTLVTVSS
VL: DIQLTQSPSSLSASVGDRVTITCSASQDISNYLNWYQQKPGKAPELVIYYTSNLHSGVPSRFSGSGSGTDYTLTISSLQPEDFATYYCQQYRKLPWTFGQGTKLEIKR
notes: humanised, human IgG1/kappa
On to B4, for which, in assay [3], the binding result is “binds”.

B5: S307118G03 humanised H4L1 (antibody, human IgG1, kappa, V domains shown)
VH: QVQLVQSGAEVKKPGSSVKVSCKASGYTFTDYYMKWVRQAPGQGLEWMGEIYPNNGGITYNQKFKGRVTITADKSTSTAYMELSSLRSEDTAVYYCADGYEFVYWGQGTLVTVSS
VL: DIQMTQSPSSLSASVGDRVTITCSASQGISNYLNWYQQKPGKAPKLLIYYTSSLHSGVPSRFSGSGSGTDYTLTISSLQPEDFATYYCQQYSKLPWTFGQGTKLEIKR
notes: humanised, human IgG1/kappa
As to B5, the binding result in assay [4] is given as “no binding (tested: 256 nM (highest analyte concentration))”.

B6: CA8 humanised J7M2 (antibody, human IgG1, kappa, V domains shown)
VH: QVQLVQSGAEVKKPGSSVKVSCKASGYTFTNYWMHWVRQAPGQGLEWMGATYRGHSDTYYNQKFKGRVTITADKSTSTAYMELSSLRSEDTAVYYCARGAIYDGYDVLDNWGQGTLVTVSS
VL: DIQLTQSPSSLSASVGDRVTITCSASQDISNYLNWYQQKPGKAPELVIYYTSNLHSGVPSRFSGSGSGTDYTLTISSLQPEDFATYYCQQYRKLPWTFGQGTKLEIKR
notes: humanised, human IgG1/kappa
As to B6, in assay [3], the binding result is on record as “binds”.

B7: CA8 humanised J8M0 (antibody, human IgG1, kappa, V domains shown)
VH: QVQLVQSGAEVKKPGSSVKVSCKASGYTFTNYWMHWVRQAPGQGLEWMGATYRGHSDTYYNQKFKGRVTITADKSTSTAYMELSSLRSEDTAVYYCTRGAIYDGYDVLDNWGQGTLVTVSS
VL: DIQMTQSPSSLSASVGDRVTITCSASQDISNYLNWYQQKPGKAPKLLIYYTSNLHSGVPSRFSGSGSGTDFTLTISSLQPEDFATYYCQQYRKLPWTFGQGTKLEIKR
notes: humanised, human IgG1/kappa
Regarding B7, in assay [3], the binding result is recorded as “binds”.

B8: CA8 humanised J9M2 (antibody, human IgG1, kappa, V domains shown)
VH: QVQLVQSGAEVKKPGSSVKVSCKGSGYTFTNYWMHWVRQAPGQGLEWIGATYRGHSDTYYNQKFKGRATLTADTSTSTAYMELSSLRSEDTAVYYCTRGAIYDGYDVLDNWGQGTLVTVSS
VL: DIQLTQSPSSLSASVGDRVTITCSASQDISNYLNWYQQKPGKAPELVIYYTSNLHSGVPSRFSGSGSGTDYTLTISSLQPEDFATYYCQQYRKLPWTFGQGTKLEIKR
notes: humanised, human IgG1/kappa
For B8, the binding result in assay [3] was “binds”.

B9: CA8 humanised J7M0 (antibody, human IgG1, kappa, V domains shown)
VH: QVQLVQSGAEVKKPGSSVKVSCKASGYTFTNYWMHWVRQAPGQGLEWMGATYRGHSDTYYNQKFKGRVTITADKSTSTAYMELSSLRSEDTAVYYCARGAIYDGYDVLDNWGQGTLVTVSS
VL: DIQMTQSPSSLSASVGDRVTITCSASQDISNYLNWYQQKPGKAPKLLIYYTSNLHSGVPSRFSGSGSGTDFTLTISSLQPEDFATYYCQQYRKLPWTFGQGTKLEIKR
notes: humanised, human IgG1/kappa
With B9, the binding result in assay [3] is “binds”.

B10: CA8 humanised J6M0 (antibody, human IgG1, kappa, V domains shown)
VH: QVQLVQSGAEVKKPGSSVKVSCKASGGTFSNYWMHWVRQAPGQGLEWMGATYRGHSDTYYNQKFKGRVTITADKSTSTAYMELSSLRSEDTAVYYCARGAIYDGYDVLDNWGQGTLVTVSS
VL: DIQMTQSPSSLSASVGDRVTITCSASQDISNYLNWYQQKPGKAPKLLIYYTSNLHSGVPSRFSGSGSGTDFTLTISSLQPEDFATYYCQQYRKLPWTFGQGTKLEIKR
notes: humanised, human IgG1/kappa; also called CA8 J6M0; humanised J6M0 (wild type)
On to B10, for which the “IC50 (read off the curve)” value in assay [1] is approximately 0.8 µg/mL.

B11: CA8 chimera (antibody, V domains shown)
VH: EVQLQQSGAVLARPGASVKMSCKGSGYTFTNYWMHWVKQRPGQGLEWIGATYRGHSDTYYNQKFKGKAKLTAVTSTSTAYMELSSLTNEDSAVYYCTRGAIYNGYDVLDNWGQGTLVTVSS
VL: DIQLTQTTSSLSASLGDRVTISCSASQDISNYLNWYQQKPDGTVELVIYYTSNLHSGVPSRFSGSGSGTDYSLTIGYLEPEDVATYYCQQYRKLPWTFGGGSKLEIKR
notes: also called chimeric CA8; human chimeric CA8
For B11, the concentration for a half-maximal effect (EC50 (read off the curve)) (in general, the concentration at which the effect is half-maximal) in assay [5] is approximately 0.3 µg/mL; in assay [6], approximately 0.4 µg/mL.
